In assay [1] the target is human insulin receptor, B isoform (human) (UniProt P06213). Nature of the assay: SPA competition with [125I-A14Y]-human insulin, membrane-associated hIR-B, 0.1% HSA (Ex 26).
The target of assay [2] is human insulin receptor, A isoform (human) (UniProt P06213). Nature of the assay: SPA competition with [125I-A14Y]-human insulin, solubilised hIR-A, […] HSA (Ex 25).
Assay [3] shares this target. Briefly: SPA competition with [125I-A14Y]-human insulin, solubilised hIR-A, 0% HSA (Ex 25).
For assay [4] the target is unchanged. Nature of the assay: SPA competition with [125I-A14Y]-human insulin, membrane-associated hIR-A, 0.1% HSA (Ex 26).
Assay [5] concerns the target human insulin-like growth factor 1 receptor (human) (UniProt P08069). Briefly: SPA competition with [125I-Tyr31]-human IGF-1, membrane-associated hIGF-1R, 0.1% HSA (Ex 26).

For the substance “A14E, A21A, B3Q, desB27, B29K(N(eps)tetradecanedioyl-4×gGlu), desB30 human insulin (ligand)”, the relative binding affinity (% rel to HI) is 36.8 % rel to HI in assay [1], 37.4 % rel to HI in assay [2], 63.8 % rel to HI in assay [3] and 31 % rel to HI in assay [4].
The matching figures for “A21G, B3E, desB27, B29K(N(eps)tetradecanedioyl-gGlu-2×OEG), desB30 human insulin (ligand)”: 29 % rel to HI, 9.2 % rel to HI, 23.8 % rel to HI and 28.9 % rel to HI.
The corresponding values for “A21A, B3E, desB27, B29K(N(eps)hexadecanedioyl-4×gGlu), desB30 human insulin (ligand)” are 15 % rel to HI, 6.2 % rel to HI, 69 % rel to HI and 14.2 % rel to HI.
For “A8H, A21G, B3E, desB27, B29K(N(eps)tetradecanedioyl-gGlu-2×OEG), desB30 human insulin (ligand)”, the relative binding affinity (% rel to HI) was 90.2 % rel to HI in assay [1], 42.4 % rel to HI in assay [2], 100 % rel to HI in assay [3] and 89.6 % rel to HI in assay [4].
For the substance “A21A, B3E, desB27, B29K(N(eps)hexadecanedioyl-gGlu-2×OEG), desB30 human insulin (ligand)”, the relative binding affinity (% rel to HI) in assay [1] is 13.2 % rel to HI; in assay [2], 3.6 % rel to HI; in assay [4], 14.3 % rel to HI; in assay [5], 0.1 % rel to HI.
“A8R, B3E, desB27, B29K(N(eps)tetradecanedioyl-gGlu-2×OEG), desB30 human insulin (ligand)”: the relative binding affinity (% rel to HI) in assay [1] was 67.9 % rel to HI; in assay [2], 45.5 % rel to HI; in assay [3] it was 103 % rel to HI; in assay [4], 61.3 % rel to HI.
As to “A21A, B3Q, desB27, B29K(N(eps)tetradecanedioyl-gGlu-2×OEG), desB30 human insulin (ligand)”, the relative binding affinity (% rel to HI) in assay [1] is 48.8 % rel to HI; in assay [2], 32 % rel to HI; in assay [3], 87.7 % rel to HI; in assay [4] it was 63.8 % rel to HI.
Turning to “B3Q, desB27, B29K(N(eps)tetradecanedioyl-4×gGlu), desB30 human insulin (from UniProt P01308 90-110) (ligand)”, in assay [5], the relative binding affinity (% rel to HI) was 4.1 % rel to HI.
Turning to “A8H, B3E, desB27, B29K(N(eps)tetradecanedioyl-gGlu-2×OEG), desB30 human insulin (ligand)”, the relative binding affinity (% rel to HI) in assay [1] is 82.1 % rel to HI; in assay [2], 70.5 % rel to HI; in assay [3], 172 % rel to HI; in assay [4], 84.1 % rel to HI.
The matching figures for “A21A, B3E, desB27, B29K(N(eps)tetradecanedioyl-4×gGlu), desB30 human insulin (ligand)”: 42.3 % rel to HI, 32.3 % rel to HI, 70.5 % rel to HI and 40.5 % rel to HI.
The corresponding values for “A8H, A21A, B3E, desB27, B29K(N(eps)tetradecanedioyl-gGlu-2×OEG), desB30 human insulin (ligand)” are 81.9 % rel to HI, 82.3 % rel to HI, 225 % rel to HI and 83.7 % rel to HI.
The matching figures for “A21A, B3E, desB27, B29K(N(eps)tetradecanedioyl-gGlu-2×OEG), desB30 human insulin (ligand)”: 49.6 % rel to HI, 22.3 % rel to HI, 63.4 % rel to HI and 52.1 % rel to HI.
Turning to “A21A, B3Q, desB27, B29K(N(eps)hexadecanedioyl-gGlu-2×OEG), desB30 human insulin (ligand)”, the relative binding affinity (% rel to HI) in assay [1] is 14.6 % rel to HI; in assay [2], 5.6 % rel to HI; in assay [3], 76.9 % rel to HI; in assay [4] it was 15.8 % rel to HI.
The matching figures for “A21A, B3Q, desB27, B29K(N(eps)tetradecanedioyl-4×gGlu), desB30 human insulin (ligand)”: 62.9 % rel to HI, 42.4 % rel to HI, 104 % rel to HI and 49.4 % rel to HI.
The matching figures for “A8H, A21A, B3E, desB27, B29K(N(eps)tetradecanedioyl-4×gGlu), desB30 human insulin (ligand)”: 124 % rel to HI, 135 % rel to HI, 253 % rel to HI and 88.5 % rel to HI.
The corresponding values for “A21A, B3Q, desB27, B29K(N(eps)hexadecanedioyl-4×gGlu), desB30 human insulin (ligand)” are 15.4 % rel to HI, 8.2 % rel to HI, 99.5 % rel to HI and 14.1 % rel to HI.

The values are drawn from US20180244743A1.
